# Measured values reported in FireProtDB.
# B1: Alpha-lactalbumin wild type, P00712 (protein)
# chain: MMSFVSLLLVGILFHATQAEQLTKCEVFQKLKDLKDYGGVSLPEWVCTAFHTSGYDTQAIVQNNDSTEYGLFQINNKIWCKDDQNPHSRNICNISCDKFLDDDLTDDIVCAKKILDKVGINYWLAHKALCSEKLDQWLCEKL
# Settings: Capra hircus; pH 7; 25 °C; GdnHCl; CD; sodium cacodylate 50 mM; NaCl 50 mM; reversible: yes; whole UniProt chain shown
protein,measurement,value
B1,denaturant m value,2.2 kcal/mol/M
same,denaturant midpoint (higher = more stable),2.6 M
same,unfolding free energy,5.7 kcal/mol
